The values that follow are results of earlier work, collected in publication PMC5904127.

This data set has as its target apocalmodulin (UniProt P0DP23).

What is called Kd is the constant that tells how readily two partners part at equilibrium. For “neuromodulin IQ domain (from UniProt P17677)”, the Kd is 2000 nM.
